Results taken from the supplement of paper PMC10065799, “High-throughput profiling of sequence recognition by tyrosine kinases and SH2 domains using bacterial peptide display” (eLife, 2023).
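Also: 11-residue human phosphosite peptides and single-mutation variants displayed on the E. coli surface, counted by deep sequencing, each peptide's frequency after selection divided by its frequency in the unselected input library; frequency after pTyr selection over input frequency; kinase dosed for 20-30% of maximal phosphorylation in three min.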

The sequences below were run against Fyn (UniProt P06241) (assay: phosphorylation enrichment, bacterial display (enrichment ratio); higher = better substrate or ligand; peptides without Tyr show the background).
Fyn, sequence (P06241 whole entry, looked up): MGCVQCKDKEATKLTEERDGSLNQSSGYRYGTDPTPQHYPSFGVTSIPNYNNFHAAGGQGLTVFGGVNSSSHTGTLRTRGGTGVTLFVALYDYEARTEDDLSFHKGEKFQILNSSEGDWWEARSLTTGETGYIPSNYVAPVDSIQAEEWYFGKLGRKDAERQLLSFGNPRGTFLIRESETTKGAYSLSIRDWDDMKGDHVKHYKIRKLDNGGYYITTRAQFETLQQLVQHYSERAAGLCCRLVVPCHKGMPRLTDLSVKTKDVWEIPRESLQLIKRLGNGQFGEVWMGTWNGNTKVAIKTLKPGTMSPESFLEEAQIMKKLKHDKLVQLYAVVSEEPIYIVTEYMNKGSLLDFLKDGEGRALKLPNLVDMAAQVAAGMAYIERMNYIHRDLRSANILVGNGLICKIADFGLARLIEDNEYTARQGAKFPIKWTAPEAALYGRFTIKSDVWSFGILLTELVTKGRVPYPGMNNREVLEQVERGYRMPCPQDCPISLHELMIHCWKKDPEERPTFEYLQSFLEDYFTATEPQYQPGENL
For DRLASYRDKVR [KRT12_Y139_L140R], the phosphorylation enrichment was 0.372.
In the case of ANYTEYVATSW [CDKL5_Y171_R175S], the phosphorylation enrichment is reported as 0.722.
Work on VVKTVYSLQPS [KNSTRN_Y87_P92S] yielded a phosphorylation enrichment of 1.73.
QERPEYWDQET [HLA-A_Y83_G80R] showed a phosphorylation enrichment of 0.646.
HLEKKYVHRDS [CSF1R_Y708_R710H] was tested, and the phosphorylation enrichment was 0.585.
RQSRNYLGGFA [SYK_Y47] gave a phosphorylation enrichment of 0.597.
IDGLEYLHSQS [STK11_Y166_G171S] was tested, and the phosphorylation enrichment was 0.465.
ITVCDYTNPCP [MYD88_Y276_T281P] gave a phosphorylation enrichment of 0.428.
Work on STEPQYQPGEN [SRC_Y530] yielded a phosphorylation enrichment of 0.383.
With SKHHLYSDLQT [PTCHD1_Y84_R82H] the phosphorylation enrichment was 0.505.
Sequence KLIETYSSKNY [PLP1_Y50_F51S] has a phosphorylation enrichment of 0.429.
TLSGIYQFSIA [FOXL2_Y81_I84S_YF] showed a phosphorylation enrichment of 5.53.
REETTYLPLTS [ICAM3_Y527_S525T] was tested, and the phosphorylation enrichment was 0.864.
APSHAYHGGVL [ANO1_Y981] was tested, and the phosphorylation enrichment was 0.382.
For QGGRCYMMIVD [GAA_Y438_R437C], the phosphorylation enrichment was 0.87.
NLPGGYSGSVK [MCPH1_Y606] showed a phosphorylation enrichment of 0.484.
Sequence WRPFGYPHRRR [BCS1L_Y181_R183H] has a phosphorylation enrichment of 0.488.
Work on KDDEKYLDVSR [MTM1_Y260_I264S] yielded a phosphorylation enrichment of 0.456.
With AVLQLYIFVAT [CFTR_Y1014_P1013L] the phosphorylation enrichment was 0.516.
GPRKAYELSQR [SETX_Y1297] showed a phosphorylation enrichment of 0.401.
NDENIYKGLPD [VAV3_Y141_D139N] gave a phosphorylation enrichment of 1.23.
With RESVSYLFSHV [PRPS1_Y311_G306R] the phosphorylation enrichment was 1.41.
Sequence EFSNQYKATIG [RAB7A_Y37_K32E] has a phosphorylation enrichment of 0.339.
ACDALYPPGPP was tested, and the phosphorylation enrichment was 0.482.
In the case of KSLFHYRQYSA [CPS1_Y1491], the phosphorylation enrichment is reported as 0.54.
VEDQYYRVDCY [FHL1_Y208_C209R] gave a phosphorylation enrichment of 0.892.
Work on TLARLYHRDST [LRIG1_Y1029_P1031R] yielded a phosphorylation enrichment of 0.565.
Work on CTTIHYNDMCN [TP53_Y234_Y236D] yielded a phosphorylation enrichment of 0.422.
With PPDGEYFTLQI [TP53_Y327_L323P] the phosphorylation enrichment was 3.74.

Each sequence was assayed against Hck (UniProt P08631) in the same assay as above.
Hck, sequence (P08631 whole entry, looked up): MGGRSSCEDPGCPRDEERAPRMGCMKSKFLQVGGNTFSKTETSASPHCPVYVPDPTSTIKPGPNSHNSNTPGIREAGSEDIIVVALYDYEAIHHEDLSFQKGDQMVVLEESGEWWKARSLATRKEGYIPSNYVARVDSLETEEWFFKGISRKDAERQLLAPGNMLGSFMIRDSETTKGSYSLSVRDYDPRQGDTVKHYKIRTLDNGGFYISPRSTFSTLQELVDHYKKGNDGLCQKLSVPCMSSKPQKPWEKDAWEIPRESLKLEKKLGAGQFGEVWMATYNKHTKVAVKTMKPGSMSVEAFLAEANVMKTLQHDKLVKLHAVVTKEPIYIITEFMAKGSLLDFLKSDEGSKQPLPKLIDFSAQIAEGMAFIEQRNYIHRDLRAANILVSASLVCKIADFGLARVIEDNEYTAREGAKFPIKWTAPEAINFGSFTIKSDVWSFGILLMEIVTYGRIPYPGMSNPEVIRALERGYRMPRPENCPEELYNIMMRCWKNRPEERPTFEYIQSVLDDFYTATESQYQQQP
DRLASYRDKVR [KRT12_Y139_L140R] showed a phosphorylation enrichment of 0.327.
ANYTEYVATSW [CDKL5_Y171_R175S] gave a phosphorylation enrichment of 0.672.
VVKTVYSLQPS [KNSTRN_Y87_P92S] gave a phosphorylation enrichment of 0.688.
QERPEYWDQET [HLA-A_Y83_G80R] was tested, and the phosphorylation enrichment was 0.696.
For HLEKKYVHRDS [CSF1R_Y708_R710H], the phosphorylation enrichment was 0.399.
Sequence RQSRNYLGGFA [SYK_Y47] has a phosphorylation enrichment of 0.483.
IDGLEYLHSQS [STK11_Y166_G171S] showed a phosphorylation enrichment of 0.604.
In the case of ITVCDYTNPCP [MYD88_Y276_T281P], the phosphorylation enrichment is reported as 0.354.
For STEPQYQPGEN [SRC_Y530], the phosphorylation enrichment was 0.499.
For SKHHLYSDLQT [PTCHD1_Y84_R82H], the phosphorylation enrichment was 0.985.
In the case of KLIETYSSKNY [PLP1_Y50_F51S], the phosphorylation enrichment is reported as 0.536.
For TLSGIYQFSIA [FOXL2_Y81_I84S_YF], the phosphorylation enrichment was 3.82.
Sequence REETTYLPLTS [ICAM3_Y527_S525T] has a phosphorylation enrichment of 1.7.
Sequence APSHAYHGGVL [ANO1_Y981] has a phosphorylation enrichment of 0.5.
QGGRCYMMIVD [GAA_Y438_R437C] gave a phosphorylation enrichment of 0.769.
With NLPGGYSGSVK [MCPH1_Y606] the phosphorylation enrichment was 0.447.
Sequence WRPFGYPHRRR [BCS1L_Y181_R183H] has a phosphorylation enrichment of 0.509.
For KDDEKYLDVSR [MTM1_Y260_I264S], the phosphorylation enrichment was 0.457.
With AVLQLYIFVAT [CFTR_Y1014_P1013L] the phosphorylation enrichment was 0.562.
GPRKAYELSQR [SETX_Y1297] was tested, and the phosphorylation enrichment was 0.389.
NDENIYKGLPD [VAV3_Y141_D139N] was tested, and the phosphorylation enrichment was 1.4.
Work on RESVSYLFSHV [PRPS1_Y311_G306R] yielded a phosphorylation enrichment of 0.549.
Sequence EFSNQYKATIG [RAB7A_Y37_K32E] has a phosphorylation enrichment of 0.446.
ACDALYPPGPP was tested, and the phosphorylation enrichment was 0.391.
For KSLFHYRQYSA [CPS1_Y1491], the phosphorylation enrichment was 0.512.
VEDQYYRVDCY [FHL1_Y208_C209R] showed a phosphorylation enrichment of 0.993.
TLARLYHRDST [LRIG1_Y1029_P1031R] showed a phosphorylation enrichment of 0.409.
CTTIHYNDMCN [TP53_Y234_Y236D] showed a phosphorylation enrichment of 0.455.
Sequence PPDGEYFTLQI [TP53_Y327_L323P] has a phosphorylation enrichment of 2.75.

These sequences were tested against FGFR1 (UniProt P11362) in the same assay as above.
FGFR1, sequence (P11362 whole entry, looked up): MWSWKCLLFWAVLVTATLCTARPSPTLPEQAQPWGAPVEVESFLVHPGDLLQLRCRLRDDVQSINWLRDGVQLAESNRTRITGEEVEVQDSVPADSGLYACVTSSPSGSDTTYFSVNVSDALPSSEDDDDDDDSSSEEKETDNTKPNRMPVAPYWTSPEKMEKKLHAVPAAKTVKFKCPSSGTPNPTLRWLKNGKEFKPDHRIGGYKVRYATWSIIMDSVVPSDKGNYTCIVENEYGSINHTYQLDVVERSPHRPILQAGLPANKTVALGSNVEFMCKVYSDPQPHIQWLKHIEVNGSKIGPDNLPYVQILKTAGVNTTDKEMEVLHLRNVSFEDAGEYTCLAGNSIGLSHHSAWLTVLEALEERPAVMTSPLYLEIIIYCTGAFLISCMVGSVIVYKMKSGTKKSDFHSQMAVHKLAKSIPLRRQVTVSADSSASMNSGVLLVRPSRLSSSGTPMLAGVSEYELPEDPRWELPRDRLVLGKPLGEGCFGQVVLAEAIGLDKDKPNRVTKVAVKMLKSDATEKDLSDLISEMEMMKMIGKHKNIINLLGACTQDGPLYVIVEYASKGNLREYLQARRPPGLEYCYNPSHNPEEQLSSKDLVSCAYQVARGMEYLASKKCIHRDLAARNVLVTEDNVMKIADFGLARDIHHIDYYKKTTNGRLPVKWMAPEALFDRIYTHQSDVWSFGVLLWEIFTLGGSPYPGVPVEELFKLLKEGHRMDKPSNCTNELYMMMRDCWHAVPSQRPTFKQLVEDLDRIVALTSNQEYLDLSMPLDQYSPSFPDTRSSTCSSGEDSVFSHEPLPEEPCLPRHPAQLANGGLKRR
DRLASYRDKVR [KRT12_Y139_L140R] was tested, and the phosphorylation enrichment was 0.27.
Sequence ANYTEYVATSW [CDKL5_Y171_R175S] has a phosphorylation enrichment of 3.44.
In the case of VVKTVYSLQPS [KNSTRN_Y87_P92S], the phosphorylation enrichment is reported as 0.52.
Work on QERPEYWDQET [HLA-A_Y83_G80R] yielded a phosphorylation enrichment of 0.727.
HLEKKYVHRDS [CSF1R_Y708_R710H] showed a phosphorylation enrichment of 0.42.
RQSRNYLGGFA [SYK_Y47] was tested, and the phosphorylation enrichment was 0.329.
IDGLEYLHSQS [STK11_Y166_G171S] was tested, and the phosphorylation enrichment was 0.457.
ITVCDYTNPCP [MYD88_Y276_T281P] was tested, and the phosphorylation enrichment was 0.443.
Sequence STEPQYQPGEN [SRC_Y530] has a phosphorylation enrichment of 0.478.
Work on SKHHLYSDLQT [PTCHD1_Y84_R82H] yielded a phosphorylation enrichment of 0.55.
For KLIETYSSKNY [PLP1_Y50_F51S], the phosphorylation enrichment was 0.584.
TLSGIYQFSIA [FOXL2_Y81_I84S_YF] gave a phosphorylation enrichment of 0.852.
Sequence REETTYLPLTS [ICAM3_Y527_S525T] has a phosphorylation enrichment of 0.74.
Sequence APSHAYHGGVL [ANO1_Y981] has a phosphorylation enrichment of 0.626.
QGGRCYMMIVD [GAA_Y438_R437C] was tested, and the phosphorylation enrichment was 0.815.
NLPGGYSGSVK [MCPH1_Y606] showed a phosphorylation enrichment of 0.374.
Sequence WRPFGYPHRRR [BCS1L_Y181_R183H] has a phosphorylation enrichment of 0.507.
KDDEKYLDVSR [MTM1_Y260_I264S] gave a phosphorylation enrichment of 0.473.
AVLQLYIFVAT [CFTR_Y1014_P1013L] was tested, and the phosphorylation enrichment was 0.462.
In the case of GPRKAYELSQR [SETX_Y1297], the phosphorylation enrichment is reported as 0.422.
In the case of NDENIYKGLPD [VAV3_Y141_D139N], the phosphorylation enrichment is reported as 0.529.
With RESVSYLFSHV [PRPS1_Y311_G306R] the phosphorylation enrichment was 0.532.
Work on EFSNQYKATIG [RAB7A_Y37_K32E] yielded a phosphorylation enrichment of 0.405.
In the case of ACDALYPPGPP, the phosphorylation enrichment is reported as 0.482.
KSLFHYRQYSA [CPS1_Y1491] showed a phosphorylation enrichment of 0.531.
Work on VEDQYYRVDCY [FHL1_Y208_C209R] yielded a phosphorylation enrichment of 7.43.
TLARLYHRDST [LRIG1_Y1029_P1031R] showed a phosphorylation enrichment of 0.563.
In the case of CTTIHYNDMCN [TP53_Y234_Y236D], the phosphorylation enrichment is reported as 0.485.
Sequence PPDGEYFTLQI [TP53_Y327_L323P] has a phosphorylation enrichment of 12.4.

The sequences below were run on Fer (mouse) in the same assay as above.
Sequence DRLASYRDKVR [KRT12_Y139_L140R] has a phosphorylation enrichment of 0.366.
ANYTEYVATSW [CDKL5_Y171_R175S] gave a phosphorylation enrichment of 0.555.
VVKTVYSLQPS [KNSTRN_Y87_P92S] gave a phosphorylation enrichment of 0.485.
In the case of QERPEYWDQET [HLA-A_Y83_G80R], the phosphorylation enrichment is reported as 1.14.
Work on HLEKKYVHRDS [CSF1R_Y708_R710H] yielded a phosphorylation enrichment of 0.585.
RQSRNYLGGFA [SYK_Y47] was tested, and the phosphorylation enrichment was 0.404.
With IDGLEYLHSQS [STK11_Y166_G171S] the phosphorylation enrichment was 0.476.
For ITVCDYTNPCP [MYD88_Y276_T281P], the phosphorylation enrichment was 0.396.
STEPQYQPGEN [SRC_Y530] showed a phosphorylation enrichment of 0.392.
Sequence SKHHLYSDLQT [PTCHD1_Y84_R82H] has a phosphorylation enrichment of 1.91.
Work on KLIETYSSKNY [PLP1_Y50_F51S] yielded a phosphorylation enrichment of 0.44.
For TLSGIYQFSIA [FOXL2_Y81_I84S_YF], the phosphorylation enrichment was 6.02.
REETTYLPLTS [ICAM3_Y527_S525T] gave a phosphorylation enrichment of 0.608.
APSHAYHGGVL [ANO1_Y981] gave a phosphorylation enrichment of 0.502.
QGGRCYMMIVD [GAA_Y438_R437C] gave a phosphorylation enrichment of 0.948.
NLPGGYSGSVK [MCPH1_Y606] gave a phosphorylation enrichment of 0.375.
Sequence WRPFGYPHRRR [BCS1L_Y181_R183H] has a phosphorylation enrichment of 0.512.
KDDEKYLDVSR [MTM1_Y260_I264S] showed a phosphorylation enrichment of 0.442.
In the case of AVLQLYIFVAT [CFTR_Y1014_P1013L], the phosphorylation enrichment is reported as 0.573.
In the case of GPRKAYELSQR [SETX_Y1297], the phosphorylation enrichment is reported as 0.381.
NDENIYKGLPD [VAV3_Y141_D139N] was tested, and the phosphorylation enrichment was 0.579.
RESVSYLFSHV [PRPS1_Y311_G306R] gave a phosphorylation enrichment of 0.479.
With EFSNQYKATIG [RAB7A_Y37_K32E] the phosphorylation enrichment was 0.442.
Work on ACDALYPPGPP yielded a phosphorylation enrichment of 0.469.
For KSLFHYRQYSA [CPS1_Y1491], the phosphorylation enrichment was 0.408.
VEDQYYRVDCY [FHL1_Y208_C209R] was tested, and the phosphorylation enrichment was 0.598.
In the case of TLARLYHRDST [LRIG1_Y1029_P1031R], the phosphorylation enrichment is reported as 0.71.
CTTIHYNDMCN [TP53_Y234_Y236D] was tested, and the phosphorylation enrichment was 0.421.
In the case of PPDGEYFTLQI [TP53_Y327_L323P], the phosphorylation enrichment is reported as 1.41.
